Test results as given in paper PMC3798461.

Experiments:
[1] = target: mLANA_(140–272), C-terminal DNA-binding domain of murine gammaherpesvirus 68 latency-associated nuclear antigen (murine gammaherpesvirus 68 (MHV-68)); assay: SEC; purified mLANA DBD truncations analysed by size exclusion chromatography; oligomeric state from the elution volume
[2] = target: mLANA_(140–314) (murine gammaherpesvirus 68 (MHV-68)); assay: as above
[3] = tested on: mLANA124-272 WT (Murine gammaherpesvirus 68 (MHV-68, MuHV-4)); assay: SPR; conditions: 5' biotin with TTTTT spacer; EMSA: 20 mM Tris-HCl pH 7.5, 50 mM KCl, 10 mM MgCl2, 1 mM EDTA, 20 ug/mL poly(dI-dC), 0.1 mM DTT, 10% glycerol, RT; ITC: 25 mM Na/K phosphate pH 7.0, 150 mM …
[4] = tested on: mLANA124-314 WT (Murine gammaherpesvirus 68 (MHV-68, MuHV-4)); assay: ITC; conditions: EMSA: 20 mM Tris-HCl pH 7.5, 50 mM KCl, 10 mM MgCl2, 1 mM EDTA, 20 ug/mL poly(dI-dC), 0.1 mM DTT, 10% glycerol, RT; ITC: 25 mM Na/K phosphate pH 7.0, 150 mM …

Substance: mLANA_(140–272), C-terminal DNA-binding domain of murine gammaherpesvirus 68 latency-associated nuclear antigen (domain or fragment)
- stoichiometry N [1]: 2

Substance: mLANA_(140–314) (domain or fragment)
- stoichiometry N [2]: 4

Substance: mLBS1 SPR ligand (biotin-TTTTT-mLBS1)
- Kd [3]: 169 nM

Substance: mLBS1 for ITC and SEC (no spacer)
- Kd [4]: 66 nM
